# Laboratory results taken from publication PMC9482650, “Quantitative fragmentomics allow affinity mapping of interactomes” (Nature Communications, 2022).
# T1: PARD3B_1, Q8TEW8
# T1 sequence (Q8TEW8 196-299, limits assumed, looked up): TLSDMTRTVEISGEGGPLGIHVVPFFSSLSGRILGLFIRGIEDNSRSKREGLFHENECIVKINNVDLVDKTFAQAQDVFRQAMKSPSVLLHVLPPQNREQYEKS
# T2: ARHGAP21, Q5T5U3
# T2 sequence (Q5T5U3 45-169, limits assumed, looked up): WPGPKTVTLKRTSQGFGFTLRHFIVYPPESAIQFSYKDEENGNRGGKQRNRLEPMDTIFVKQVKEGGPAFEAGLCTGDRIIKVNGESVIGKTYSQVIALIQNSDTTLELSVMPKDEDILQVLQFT
# T3: LNX2_3, Q8N448
# T3 sequence (Q8N448 463-564, limits assumed, looked up): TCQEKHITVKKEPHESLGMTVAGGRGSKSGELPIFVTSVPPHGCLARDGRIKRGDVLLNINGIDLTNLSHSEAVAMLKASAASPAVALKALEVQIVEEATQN
# T4: APBA2_2, Q99767
# T4 sequence (Q99767 654-744, limits assumed, looked up): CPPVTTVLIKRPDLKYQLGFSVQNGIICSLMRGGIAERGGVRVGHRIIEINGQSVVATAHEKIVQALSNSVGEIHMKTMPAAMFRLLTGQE
# T5: SNTG2, Q9NY99
# T5 sequence (Q9NY99 68-166, limits assumed, looked up): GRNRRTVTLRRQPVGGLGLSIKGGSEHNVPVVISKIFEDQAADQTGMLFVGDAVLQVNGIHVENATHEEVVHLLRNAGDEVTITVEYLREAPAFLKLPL
# T6: HTRA4, P83105
# T6 sequence (P83105 378-476, limits assumed, looked up): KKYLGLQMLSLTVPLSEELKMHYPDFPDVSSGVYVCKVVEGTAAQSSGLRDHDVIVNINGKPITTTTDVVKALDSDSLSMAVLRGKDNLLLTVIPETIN
# T7: LRRC7, Q96NW7
# T7 sequence (Q96NW7 1440-1537, limits assumed, looked up): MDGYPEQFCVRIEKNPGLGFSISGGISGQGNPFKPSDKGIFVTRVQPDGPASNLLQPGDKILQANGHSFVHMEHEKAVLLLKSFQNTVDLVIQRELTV
# T8: TX1BP3, O14907
# T8 sequence (O14907 10-122, limits assumed, looked up): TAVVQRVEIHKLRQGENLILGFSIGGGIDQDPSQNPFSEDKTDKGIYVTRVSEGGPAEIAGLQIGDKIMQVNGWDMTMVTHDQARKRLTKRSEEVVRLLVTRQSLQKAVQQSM
# T9: PTPN13_1, Q12923
# T9 sequence (Q12923 1088-1188, limits assumed, looked up): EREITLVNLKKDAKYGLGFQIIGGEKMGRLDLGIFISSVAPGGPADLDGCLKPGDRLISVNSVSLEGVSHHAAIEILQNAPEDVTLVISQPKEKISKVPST
# T10: LNX2_2, Q8N448
# T10 sequence (Q8N448 334-432, limits assumed, looked up): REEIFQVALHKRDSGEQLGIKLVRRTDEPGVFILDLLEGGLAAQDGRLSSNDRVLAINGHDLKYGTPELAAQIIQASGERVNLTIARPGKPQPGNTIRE
# T11: RHPN1, Q8TCX5
# T11 sequence (Q8TCX5 508-602, limits assumed, looked up): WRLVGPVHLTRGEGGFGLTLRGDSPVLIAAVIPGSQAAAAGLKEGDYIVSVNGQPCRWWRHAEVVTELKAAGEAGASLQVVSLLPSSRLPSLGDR
# Assays:
# Test in all cases: holdup assay
# Set-up in all cases: key: below the threshold = too weak to quantify, mostly under pKd 3.1 to 4
# LNX1_1, Q8TBB1 = biological target: LNX1_1, Q8TBB1
# Sequence of LNX1_1, Q8TBB1 (Q8TBB1 261-371): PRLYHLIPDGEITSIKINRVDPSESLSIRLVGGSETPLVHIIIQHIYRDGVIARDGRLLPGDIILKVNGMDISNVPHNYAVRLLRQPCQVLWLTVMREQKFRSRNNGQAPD
# PARD3B_1, Q8TEW8 = biological target: T1, PARD3B_1, Q8TEW8
# ARHGAP21, Q5T5U3 = biological target: T2, ARHGAP21, Q5T5U3
# LNX2_3, Q8N448 = biological target: T3, LNX2_3, Q8N448
# APBA2_2, Q99767 = biological target: T4, APBA2_2, Q99767
# NHERF4_2, Q86UT5 = biological target: NHERF4_2, Q86UT5
# Sequence of NHERF4_2, Q86UT5 (Q86UT5 220-308): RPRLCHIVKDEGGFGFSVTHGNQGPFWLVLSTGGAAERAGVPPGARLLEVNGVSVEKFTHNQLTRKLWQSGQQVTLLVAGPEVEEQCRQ
# DLG2_3, Q15700 = biological target: DLG2_3, Q15700
# SNTG2, Q9NY99 = biological target: T5, SNTG2, Q9NY99
# GRID2IP_1, A4D2P6 = biological target: GRID2IP_1, A4D2P6
# Sequence of GRID2IP_1, A4D2P6 (A4D2P6 1-87): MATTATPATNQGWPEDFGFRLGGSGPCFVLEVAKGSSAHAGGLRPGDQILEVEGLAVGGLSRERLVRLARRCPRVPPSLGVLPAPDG
# IL16_3, Q14005 = biological target: IL16_3, Q14005
# Sequence of IL16_3, Q14005 (Q14005 1107-1207): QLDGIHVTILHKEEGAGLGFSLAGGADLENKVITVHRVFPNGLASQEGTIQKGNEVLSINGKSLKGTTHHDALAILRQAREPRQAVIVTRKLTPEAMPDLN
# MAST1, Q9Y2H9 = biological target: MAST1, Q9Y2H9
# Sequence of MAST1, Q9Y2H9 (Q9Y2H9 962-1065): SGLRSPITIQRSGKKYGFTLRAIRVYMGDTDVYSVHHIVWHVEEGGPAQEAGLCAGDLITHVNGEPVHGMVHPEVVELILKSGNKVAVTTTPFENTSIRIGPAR
# TJP1_3, Q07157 = biological target: TJP1_3, Q07157
# Sequence of TJP1_3, Q07157 (Q07157 416-512): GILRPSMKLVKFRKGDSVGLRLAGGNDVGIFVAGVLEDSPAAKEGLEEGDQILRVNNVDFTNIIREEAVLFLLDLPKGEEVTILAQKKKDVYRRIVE
# HTRA4, P83105 = biological target: T6, HTRA4, P83105
# CASK, O14936 = biological target: CASK, O14936
# Sequence of CASK, O14936 (O14936 487-570): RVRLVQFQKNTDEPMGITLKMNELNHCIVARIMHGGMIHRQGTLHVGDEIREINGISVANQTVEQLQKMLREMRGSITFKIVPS
# SNX27, Q96L92 = biological target: SNX27, Q96L92
# LRRC7, Q96NW7 = biological target: T7, LRRC7, Q96NW7
# TX1BP3, O14907 = biological target: T8, TX1BP3, O14907
# PTPN13_1, Q12923 = biological target: T9, PTPN13_1, Q12923
# GRIP2_3, Q9C0E4 = biological target: GRIP2_3, Q9C0E4
# Sequence of GRIP2_3, Q9C0E4 (Q9C0E4 238-339): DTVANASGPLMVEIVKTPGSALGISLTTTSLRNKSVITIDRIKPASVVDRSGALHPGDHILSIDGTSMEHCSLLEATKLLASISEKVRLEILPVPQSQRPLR
# HTRA2, O43464 = biological target: HTRA2, O43464
# Sequence of HTRA2, O43464 (O43464 355-458): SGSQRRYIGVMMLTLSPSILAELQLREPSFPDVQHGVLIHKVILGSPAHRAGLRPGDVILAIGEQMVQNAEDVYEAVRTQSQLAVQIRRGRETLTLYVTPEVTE
# LNX2_2, Q8N448 = biological target: T10, LNX2_2, Q8N448
# PDLIM1, O00151 = biological target: PDLIM1, O00151
# Sequence of PDLIM1, O00151 (O00151 1-87): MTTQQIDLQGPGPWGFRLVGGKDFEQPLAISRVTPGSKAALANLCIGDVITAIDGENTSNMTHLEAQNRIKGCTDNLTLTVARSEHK
# FRMPD2_3, Q68DX3 = biological target: FRMPD2_3, Q68DX3
# Sequence of FRMPD2_3, Q68DX3 (Q68DX3 1073-1166): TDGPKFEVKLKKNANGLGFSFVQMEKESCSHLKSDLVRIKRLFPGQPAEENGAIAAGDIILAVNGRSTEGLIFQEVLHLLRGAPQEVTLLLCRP
# RHPN1, Q8TCX5 = biological target: T11, RHPN1, Q8TCX5
# GRIP2_5, Q9C0E4 = biological target: GRIP2_5, Q9C0E4
# Sequence of GRIP2_5, Q9C0E4 (Q9C0E4 544-642): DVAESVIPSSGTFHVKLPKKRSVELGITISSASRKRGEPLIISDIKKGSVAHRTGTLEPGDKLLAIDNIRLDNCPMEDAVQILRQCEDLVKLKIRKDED
# [1] = plain residues with an end cap or a label only (N-terminal biotin on a linker: ttds)
# [2] = plain residues with an end cap or a label only (N-terminal biotin on a linker: ahx)
binder,measurement,setting,value
"STLTIFETAL [ABCC4, O15439]",pKd,"LNX1_1, Q8TBB1; [1]",3.59
same,pKd,"PARD3B_1, Q8TEW8; [1]",3.94
same,pKd,"ARHGAP21, Q5T5U3; [1]",4.53
same,pKd,"LNX2_3, Q8N448; [1]",below the threshold
same,pKd,"APBA2_2, Q99767; [1]",below the threshold
same,pKd,"NHERF4_2, Q86UT5; [1]",below the threshold
same,pKd,"DLG2_3, Q15700; [1]",3.98
same,pKd,"SNTG2, Q9NY99; [1]",4.97
same,pKd,"GRID2IP_1, A4D2P6; [1]",3.48
same,pKd,"IL16_3, Q14005; [1]",below the threshold
same,pKd,"MAST1, Q9Y2H9; [1]",5.28
same,pKd,"TJP1_3, Q07157; [1]",below the threshold
same,pKd,"HTRA4, P83105; [1]",below the threshold
same,pKd,"CASK, O14936; [1]",below the threshold
same,pKd,"SNX27, Q96L92; [1]",5.85
same,pKd,"LRRC7, Q96NW7; [1]",4.39
same,pKd,"TX1BP3, O14907; [1]",5.11
same,pKd,"PTPN13_1, Q12923; [1]",below the threshold
same,pKd,"GRIP2_3, Q9C0E4; [1]",below the threshold
same,pKd,"HTRA2, O43464; [1]",3.68
same,pKd,"LNX2_2, Q8N448; [1]",below the threshold
same,pKd,"PDLIM1, O00151; [1]",3.85
same,pKd,"FRMPD2_3, Q68DX3; [1]",below the threshold
same,pKd,"RHPN1, Q8TCX5; [1]",4.87
same,pKd,"GRIP2_5, Q9C0E4; [1]",below the threshold
"TEAKLTETNA [MYO18A, Q92614]",pKd,"LNX1_1, Q8TBB1; [2]",below the threshold
same,pKd,"PARD3B_1, Q8TEW8; [2]",below the threshold
same,pKd,"ARHGAP21, Q5T5U3; [2]",below the threshold
same,pKd,"LNX2_3, Q8N448; [2]",below the threshold
same,pKd,"APBA2_2, Q99767; [2]",below the threshold
same,pKd,"NHERF4_2, Q86UT5; [2]",below the threshold
same,pKd,"DLG2_3, Q15700; [2]",below the threshold
same,pKd,"SNTG2, Q9NY99; [2]",below the threshold
same,pKd,"GRID2IP_1, A4D2P6; [2]",below the threshold
same,pKd,"IL16_3, Q14005; [2]",below the threshold
same,pKd,"MAST1, Q9Y2H9; [2]",below the threshold
same,pKd,"TJP1_3, Q07157; [2]",below the threshold
same,pKd,"HTRA4, P83105; [2]",below the threshold
same,pKd,"CASK, O14936; [2]",below the threshold
same,pKd,"SNX27, Q96L92; [2]",below the threshold
same,pKd,"LRRC7, Q96NW7; [2]",below the threshold
same,pKd,"TX1BP3, O14907; [2]",below the threshold
same,pKd,"PTPN13_1, Q12923; [2]",below the threshold
same,pKd,"GRIP2_3, Q9C0E4; [2]",below the threshold
same,pKd,"HTRA2, O43464; [2]",below the threshold
same,pKd,"LNX2_2, Q8N448; [2]",below the threshold
same,pKd,"PDLIM1, O00151; [2]",below the threshold
same,pKd,"FRMPD2_3, Q68DX3; [2]",below the threshold
same,pKd,"RHPN1, Q8TCX5; [2]",below the threshold
same,pKd,"GRIP2_5, Q9C0E4; [2]",below the threshold
"QSARYRDTEL [TJP2, Q9UDY2]",pKd,"LNX1_1, Q8TBB1; [1]",3.58
same,pKd,"PARD3B_1, Q8TEW8; [1]",below the threshold
same,pKd,"ARHGAP21, Q5T5U3; [1]",4.48
same,pKd,"LNX2_3, Q8N448; [1]",3.53
same,pKd,"APBA2_2, Q99767; [1]",below the threshold
same,pKd,"NHERF4_2, Q86UT5; [1]",below the threshold
same,pKd,"DLG2_3, Q15700; [1]",3.8
same,pKd,"SNTG2, Q9NY99; [1]",3.84
same,pKd,"GRID2IP_1, A4D2P6; [1]",3.59
same,pKd,"IL16_3, Q14005; [1]",below the threshold
same,pKd,"MAST1, Q9Y2H9; [1]",4.26
same,pKd,"TJP1_3, Q07157; [1]",below the threshold
same,pKd,"HTRA4, P83105; [1]",below the threshold
same,pKd,"CASK, O14936; [1]",below the threshold
same,pKd,"SNX27, Q96L92; [1]",4.69
same,pKd,"LRRC7, Q96NW7; [1]",3.86
same,pKd,"TX1BP3, O14907; [1]",4.76
same,pKd,"PTPN13_1, Q12923; [1]",below the threshold
same,pKd,"GRIP2_3, Q9C0E4; [1]",below the threshold
same,pKd,"HTRA2, O43464; [1]",below the threshold
same,pKd,"LNX2_2, Q8N448; [1]",below the threshold
same,pKd,"PDLIM1, O00151; [1]",3.69
same,pKd,"FRMPD2_3, Q68DX3; [1]",below the threshold
same,pKd,"RHPN1, Q8TCX5; [1]",4.03
same,pKd,"GRIP2_5, Q9C0E4; [1]",below the threshold
"IDNDTESTAL [ARHGAP17, Q68EM7]",pKd,"LNX1_1, Q8TBB1; [1]",below the threshold
same,pKd,"PARD3B_1, Q8TEW8; [1]",3.93
same,pKd,"ARHGAP21, Q5T5U3; [1]",below the threshold
same,pKd,"LNX2_3, Q8N448; [1]",below the threshold
same,pKd,"APBA2_2, Q99767; [1]",below the threshold
same,pKd,"NHERF4_2, Q86UT5; [1]",below the threshold
same,pKd,"DLG2_3, Q15700; [1]",below the threshold
same,pKd,"SNTG2, Q9NY99; [1]",3.8
same,pKd,"GRID2IP_1, A4D2P6; [1]",below the threshold
same,pKd,"IL16_3, Q14005; [1]",below the threshold
same,pKd,"MAST1, Q9Y2H9; [1]",4.91
same,pKd,"TJP1_3, Q07157; [1]",below the threshold
same,pKd,"HTRA4, P83105; [1]",below the threshold
same,pKd,"CASK, O14936; [1]",below the threshold
same,pKd,"SNX27, Q96L92; [1]",4.97
same,pKd,"LRRC7, Q96NW7; [1]",below the threshold
same,pKd,"TX1BP3, O14907; [1]",below the threshold
same,pKd,"PTPN13_1, Q12923; [1]",below the threshold
same,pKd,"GRIP2_3, Q9C0E4; [1]",below the threshold
same,pKd,"HTRA2, O43464; [1]",below the threshold
same,pKd,"LNX2_2, Q8N448; [1]",below the threshold
same,pKd,"PDLIM1, O00151; [1]",below the threshold
same,pKd,"FRMPD2_3, Q68DX3; [1]",below the threshold
same,pKd,"RHPN1, Q8TCX5; [1]",4.47
same,pKd,"GRIP2_5, Q9C0E4; [1]",below the threshold
